According to the nanobody polyreactivity screen of Harvey et al. (2022):

Assay: yeast display, Sf9 membrane polyspecificity reagent, FACS + sequencing; frameworks hold sequencing errors
Procedure, shortened: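 Genes from sorted yeast were amplified by colony PCR, read by MiSeq 2 × 250 sequencing and filtered on CDR length. These cells carried a synthetic nanobody library in Saccharomyces cerevisiae BJ5465 and were sorted by FACS into low and high (top ~1%) gates on anti-HA and streptavidin fluorescence. Polyreactivity is labelled according to the gate of origin.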
With “QVQLVESGGGLVQAGGSLRLSCAASGFTFPIYAMGLSRQAPGKERELVAAITTPGGRTYYADSVKGRFTISRDNAKNPVYLQLNSLKPEDTAVYYCNAQGYAYRLWFGYWGQGTQVTVSS” the “polyreactivity (PSR sort gate)” value was “high polyreactivity”.
With “QVQLVESGGGLVQAGGSLRLSCAASGFTFPIYAMGWSRQAPGKEWELVAAISKGGARTYYADSVKGRFTISRDNAKNTVYLQMNSLNPEDTAVYYCAALGPGGWYDYWGQGTQVTVSS” the “polyreactivity (PSR sort gate)” value was “high polyreactivity”.
For “QVQLVESGGGLVQAGGSLRLSCAASGFTFPLYAMGWYRQAPGKERELVASISSRGGSTYYADSVKGRFTISRDNAKNTVYLQMNSLKPEDTAVYYCARSTSRYYYWGQGTQVTVSS”, the “polyreactivity (PSR sort gate)” value was “high polyreactivity”.
With “QVQLVESGGGLVQAGGSLRLSCAASGFTFPLYAMGWYRQAPGKETELVATISSSGSTYYADSVKGRFTISRDNAKNTVYLQMNSLKPEDTAVYYCIAAIQSYEGSGRYFRFDYWGQGTQVTVSS” the “polyreactivity (PSR sort gate)” value was “low polyreactivity”.
For “QVQLVESGGGLVQAGGSLRLSCAASGFTFPRNTMGWYRQAPGKERELVAVISRSGGRSYYADSVKGRFTISRDNAKNTVYLQMNSLKPEDTAVYYCAADTSVRFDYWGQGTQVTVSS”, the “polyreactivity (PSR sort gate)” value was “high polyreactivity”.
In the case of “QVQLVESGGGLVQAGGSLRLSCAASGFTFPRYAMGWYRQAPGKERELVAVITRRGGSTYYADSVKGRFTISRDNAKNTVYLQMNSLKPEDTAVYYCAARQYSYNGGYGYWGQGTQVTVSS”, the “polyreactivity (PSR sort gate)” value is reported as “high polyreactivity”.
For “QVQLVESGGGLVQAGGSLRLSCAASGFTFPRYAMVWYRQAPGKERELVAAINRGGSTYYADSVKGRFTISRDNAKNTVYLQMNSLKPEDTAVYYCARARPVDTVGYVTVSGDYEFDYWGQGTQVTVSS”, the “polyreactivity (PSR sort gate)” value was “low polyreactivity”.
With “QVQLVESGGGLVQAGGSLRLSCAASGFTFPSNAMGWYRQAPGKERELVAAISSTDSTNYADSVKGRFTISRDNAKNTVYLQMNSLKPEDTAVFYCNADRDDDYDYWGQGTQVTVSS” the “polyreactivity (PSR sort gate)” value was “low polyreactivity”.
For “QVQLVESGGGLVQAGGSLRLSCAASGFTFPSYAMGWYRQAPGKERELVAVISRRGGSTYYADSVKGRFTISRDNAKNTVYLQMNSLKPEDTAVYYCNAPYYVFITFDYWGQGTQVTVSS”, the “polyreactivity (PSR sort gate)” value was “high polyreactivity”.
In the case of “QVQLVESGGGLVQAGGSLRLSCAASGFTFPSYPMGWYRQAPGKETELVAVISWGGTSTYYADSVKGRFTISRDNAKNTVYLQMNSLKPEDTAVYYCNRPSRYASTSRGYGYWGQGTQVTVSS”, the “polyreactivity (PSR sort gate)” value is reported as “high polyreactivity”.
With “QVQLVESGGGLVQAGGSLRLSCAASGFTFPVNAMGWYRQAPGKERELVAAITKRGGGTYYADSVKGRFTISRDNAKNTVYLQMNSLKPEDTAVYYCAARSFWPYYGGDYDYWGQGTQVTVSS” the “polyreactivity (PSR sort gate)” value was “high polyreactivity”.
With “QVQLVESGGGLVQAGGSLRLSCAASGFTFPVYTMGWYRQAPGKERELVAAISTSGAGTYYADSVKGRFTISRDNAKNTVYLQMNSLKPEDTAVYYCAAYKRGRPEMYYWGQGTQVTVSS” the “polyreactivity (PSR sort gate)” value was “high polyreactivity”.
For “QVQLVESGGGLVQAGGSLRLSCAASGFTFPYYAKGWYRQAPGKERELVAASTYSGDSTDYADSVKGRFTISRDNAKNTVYLQMNSLKPEDTAVYYCNVTPDCAVTDDYWGQGTQVTVSS”, the “polyreactivity (PSR sort gate)” value was “low polyreactivity”.
For “QVQLVESGGGLVQAGGSLRLSCAASGFTFPYYAMGWYREAPGKERELVAAISFSGGRTYYADSVKGRFTISRDNAKNTVYLQMNSLKPEDTAVYYCAAAKTYYRYNYWGQGTQVSVSS”, the “polyreactivity (PSR sort gate)” value was “high polyreactivity”.
In the case of “QVQLVESGGGLVQAGGSLRLSCAASGFTFPYYAMGWYRQAPGKERELVAAISRNGGSTYYADSVKGRFTISRDNAKNTVYLQMNSLKPEDTAVYYCAARYRYWGGSGFKGFDYWGQGTQVTVSS”, the “polyreactivity (PSR sort gate)” value is reported as “high polyreactivity”.
In the case of “QVQLVESGGGLVQAGGSLRLSCAASGFTFPYYAMGWYRQAPGKERELVAAITYSGDSTYYADSVKGRFTISRDNAKNTVYLQMNSLKPEDTAVYYCNVTPDWAVTDDYWGQGTQVTVSS”, the “polyreactivity (PSR sort gate)” value is reported as “low polyreactivity”.
In the case of “QVQLVESGGGLVQAGGSLRLSCAASGFTFQGNVMGWYRQAPGKERELVAVITSGGSTYYADSVKGRFTISRDNAKNTVYLQMNSLKPEDTAVYYCAKLYNSYTWKYGYWGQGTQVTVSS”, the “polyreactivity (PSR sort gate)” value is reported as “high polyreactivity”.
With “QVQLVESGGGLVQAGGSLRLSCAASGFTFQGYVMGWYRQAPGKERELVARITNDGSTTYADSVKGRFTISRDNAKNTVYLQMNTLKPEDTAVYYCARPYRFWRYYGMYYWGQGTQVTVSS” the “polyreactivity (PSR sort gate)” value was “high polyreactivity”.
In the case of “QVQLVESGGGLVQAGGSLRLSCAASGFTFQPYAMGWYRQAPGKERELVAAINWSSGRTYYADSVKGRFTISRDNAKNTVYLEMNCLKPEDTAVYYCNTRSTLGYYWGQGTQVTVSS”, the “polyreactivity (PSR sort gate)” value is reported as “high polyreactivity”.
For “QVQLVESGGGLVQAGGSLRLSCAASGFTFQTYAMGWYRQAPGKERELVATINSSGGGTYYADSVKGRFTISRDNAKNTVYLQMNSLKPEDTAVDYCAADAVWFVGQAFDISDSTTYGYWGQGTQVTVSS”, the “polyreactivity (PSR sort gate)” value was “low polyreactivity”.
In the case of “QVQLVESGGGLVQAGGSLRLSCAASGFTFQVYAMGWYRQAPGKERELVADITESGDSTYYADSVKGRFTISRDNAKNTVYLQMNSLKPEDTAVYYCAADGGWFWSLFYTFAFDYWGQGTQVTVSS”, the “polyreactivity (PSR sort gate)” value is reported as “low polyreactivity”.
With “QVQLVESGGGLVQAGGSLRLSCAASGFTFQYNAMGWYRQAPGKERELVAAITWTGTSTYAYSVKGRFTISRDNAKNTVYLQLNSVKPDDTGVYYCAARYYAPRWFRYDYWGQGTQVTVSS” the “polyreactivity (PSR sort gate)” value was “low polyreactivity”.
In the case of “QVQLVESGGGLVQAGGSLRLSCAASGFTFQYYAMGWYRQAPGKERELVAAISRGGSTNYADSVKGRFTISRDNAKNTVYLQMNSLKPEDTAVYYCARLGWTYLWGYDSWGQGTQVTVSS”, the “polyreactivity (PSR sort gate)” value is reported as “high polyreactivity”.
With “QVQLVESGGGLVQAGGSLRLSCAASGFTFRANAMGWYRQAPGKERELVAAISQSGGRTNYADSVKGRFTISRDNAKNTVYLQMNSLKPEDTAVYYCAAPYSAKELYYRMDYWGQGTQVTVSS” the “polyreactivity (PSR sort gate)” value was “high polyreactivity”.
For “QVQLVESGGGLVQAGGSLRLSCAASGFTFRANGMGWYRQAPGKERELVATITSGGTTNYADSVKGRFTISRDNAKNSVYLQMNSLIPEDTAVYYCAKRFGPAYFRLYDYWGQGTQVTVSS”, the “polyreactivity (PSR sort gate)” value was “low polyreactivity”.
For “QVQLVESGGGLVQAGGSLRLSCAASGFTFRANGMGWYRQAPGKETELVATITSGGTTNYADSVKGRFTISRDNAKNTVYLQMNSLKPEDTAVYYCAKRFGPAYFRLYDYWGQGTQVTVSS”, the “polyreactivity (PSR sort gate)” value was “low polyreactivity”.
With “QVQLVESGGGLVQAGGSLRLSCAASGFTFRAYAMGWYRQAPGKEREFVAAISYSGGSTYYADSVKGRFTISRDNAKNTVDLQMNSLKPEDTAVYYCATVLYSVPRYNYWGQGTQVTVSS” the “polyreactivity (PSR sort gate)” value was “high polyreactivity”.
With “QVQLVESGGGLVQAGGSLRLSCAASGFTFRDNAMGWYRQAPGKEWELVAAITWDGGSTYYADSVKGRFTISRDNAKNTVYLQMNSLKPEDTAVYYCAASRYYPRYFKRYYYWGQGTQVTVSS” the “polyreactivity (PSR sort gate)” value was “high polyreactivity”.
In the case of “QVQLVESGGGLVQAGGSLRLSCAASGFTFRFYAMGWYRQAPGKERELVAAISRRGGTTYYADSVKGRFTISRDNAKNTVYLQMNSLKPEDTAVYYCNKDWTYEHGYWGQGTQVTVSS”, the “polyreactivity (PSR sort gate)” value is reported as “high polyreactivity”.
In the case of “QVQLVESGGGLVQAGGSLRLSCAASGFTFRGNAMGWYRQAPGKERELVATISRGGNTNYADSVKGRFTISRDNAKNTVYLLMNSLKPEDTAVYYFAAVSYIRSKVSYNYWGNGTQVTVSS”, the “polyreactivity (PSR sort gate)” value is reported as “low polyreactivity”.
For “QVQLVESGGGLVQAGGSLRLSCAASGFTFRGNAMGWYRQAPVKERELVAAITSSDDSTYYADSVKGRFTISRDLSKNTVYLQMNSLKPEDTAVYYCAAVANGYWTYEYWGQGTQVTVSS”, the “polyreactivity (PSR sort gate)” value was “low polyreactivity”.
With “QVQLVESGGGLVQAGGSLRLSCAASGFTFRGYAMGWYRQAPGKERELVAAISKRGGSTYYADSVKGRFTISRDNAKNTVYLQMNSLKPEDTAVYYCNADYYIVGPPYAPTREDYWGQGTQVTVSS” the “polyreactivity (PSR sort gate)” value was “high polyreactivity”.
With “QVQLVESGGGLVQAGGSLRLSCAASGFTFRGYAMGWYRQAPGKERELVAAISWRGGSTYYADSVKGRFTISRDNAKNTVYLQMNSLKPEDTAVYYCAARYGRSYFGYYYWGQGTQVTVSS” the “polyreactivity (PSR sort gate)” value was “high polyreactivity”.
For “QVQLVESGGGLVQAGGSLRLSCAASGFTFRGYAMGWYRQAPGKERELVAVINTDGSTNYADSVKGRFTISRDNAKNTVYLQMNSLKPEDTAVYYCNAVRSSIGSDNDYWGQGTQVTVSS”, the “polyreactivity (PSR sort gate)” value was “low polyreactivity”.
In the case of “QVQLVESGGGLVQAGGSLRLSCAASGFTFRIYAMGWYRQAPGKERELVAAISWAGGSTFYADSVKGRFTISRDNAKNTVYLQMNSLKPEDTAVYYCAADYGYFEYDYWGQGTQVTVSS”, the “polyreactivity (PSR sort gate)” value is reported as “low polyreactivity”.
For “QVQLVESGGGLVQAGGSLRLSCAASGFTFRKNAMGWYRQAPGKERELVAAISSGTSTYYADSVKGRFTISRDNAKNTVYLQMNSLKPEDTAVYYCAAARYRTDDYWGLGTQVTVSS”, the “polyreactivity (PSR sort gate)” value was “high polyreactivity”.
In the case of “QVQLVESGGGLVQAGGSLRLSCAASGFTFRKYAMGWYRQAPGKERELVAAISSSGTSTYYADSVKGRFTISRDNAKNTVYLQMNSLKPEDTAVYYCAADRYYWGRYTLNYWGQGTQVTVSS”, the “polyreactivity (PSR sort gate)” value is reported as “low polyreactivity”.
For “QVQLVESGGGLVQAGGSLRLSCAASGFTFRNYAMGWYRQAPGKERELVAAISKRGGNTYYADSVKGRFTISRDNAKNTVYLQLYSLKREDTAVYYCAADYQFSQDVWHFGYWGLGTQVTVSS”, the “polyreactivity (PSR sort gate)” value was “high polyreactivity”.
For “QVQLVESGGGLVQAGGSLRLSCAASGFTFRNYAMGWYRQAPGKERELVAAISKRGGNTYYADSVKGRFTISRDNAKNTVYLQMNSLKPEDTAVYYCAAQRYTGQGSGYGYWGQGTQVTVSS”, the “polyreactivity (PSR sort gate)” value was “high polyreactivity”.
For “QVQLVESGGGLVQAGGSLRLSCAASGFTFRNYAMGWYRQAPGKERELVAAISKRGGNTYYADSVKGRFTISRDNAKNTVYLQMNSLKPEDTAVYYCARKYFRTSNLYGYWGQGTQVTVSS”, the “polyreactivity (PSR sort gate)” value was “high polyreactivity”.
In the case of “QVQLVESGGGLVQAGGSLRLSCAASGFTFRNYAMGWYRQAPGKERELVAAISKSGGSTYYADSVKGRFTISRDNAKNTVYFQMNSLKPEDSAVYYCATVYLYVYGFEYYYWGQGTQVTLSS”, the “polyreactivity (PSR sort gate)” value is reported as “high polyreactivity”.
With “QVQLVESGGGLVQAGGSLRLSCAASGFTFRRNAMGWYLQAPGKERELVARISSGGSTNYADSVKGRFTISRDNAKNTVYLQMNSLKPEDSAVYYCATGKGPYPYRQRYGYWGQGTKVTVSS” the “polyreactivity (PSR sort gate)” value was “high polyreactivity”.
For “QVQLVESGGGLVQAGGSLRLSCAASGFTFRRNAMGWYRQAPGKERELVAAISSGGGTYYADSVKGRFTISRDNAKNTLYLQMNSLKPEETAVYYCNAAGQVRKYGYWGQGTEVTVSS”, the “polyreactivity (PSR sort gate)” value was “high polyreactivity”.
